From IntAct's records for PubMed 21187394 come the findings set out here.

First the molecules themselves.
B1: Protein BRASSINOSTEROID … 1 (Arabidopsis thaliana (Mouse-ear cress)), O22476 (parent)
chain: MKTFSSFFLSVTTLFFFSFFSLSFQASPSQSLYREIHQLISFKDVLPDKNLLPDWSSNKNPCTFDGVTCRDDKVTSIDLSSKPLNVGFSAVSSSLLSLTGLESLFLSNSHINGSVSGFKCSASLTSLDLSRNSLSGPVTTLTSLGSCSGLKFLNVSSNTLDFPGKVSGGLKLNSLEVLDLSANSISGANVVGWVLSDGCGELKHLAISGNKISGDVDVSRCVNLEFLDVSSNNFSTGIPFLGDCSALQHLDISGNKLSGDFSRAISTCTELKLLNISSNQFVGPIPPLPLKSLQYLSLAENKFTGEIPDFLSGACDTLTGLDLSGNHFYGAVPPFFGSCSLLESLALSSNNFSGELPMDTLLKMRGLKVLDLSFNEFSGELPESLTNLSASLLTLDLSSNNFSGPILPNLCQNPKNTLQELYLQNNGFTGKIPPTLSNCSELVSLHLSFNYLSGTIPSSLGSLSKLRDLKLWLNMLEGEIPQELMYVKTLETLILDFNDLTGEIPSGLSNCTNLNWISLSNNRLTGEIPKWIGRLENLAILKLSNNSFSGNIPAELGDCRSLIWLDLNTNLFNGTIPAAMFKQSGKIAANFIAGKRYVYIKNDGMKKECHGAGNLLEFQGIRSEQLNRLSTRNPCNITSRVYGGHTSPTFDNNGSMMFLDMSYNMLSGYIPKEIGSMPYLFILNLGHNDISGSIPDEVGDLRGLNILDLSSNKLDGRIPQAMSALTMLTEIDLSNNNLSGPIPEMGQFETFPPAKFLNNPGLCGYPLPRCDPSNADGYAHHQRSHGRRPASLAGSVAMGLLFSFVCIFGLILVGREMRKRRRKKEAELEMYAEGHGNSGDRTANNTNWKLTGVKEALSINLAAFEKPLRKLTFADLLQATNGFHNDSLIGSGGFGDVYKAILKDGSAVAIKKLIHVSGQGDREFMAEMETIGKIKHRNLVPLLGYCKVGDERLLVYEFMKYGSLEDVLHDPKKAGVKLNWSTRRKIAIGSARGLAFLHHNCSPHIIHRDMKSSNVLLDENLEARVSDFGMARLMSAMDTHLSVSTLAGTPGYVPPEYYQSFRCSTKGDVYSYGVVLLELLTGKRPTDSPDFGDNNLVGWVKQHAKLRISDVFDPELMKEDPALEIELLQHLKVAVACLDDRAWRRPTMVQVMAMFKEIQAGSGIDSQSTIRSIEDGGFSTIEMVDMSIKEVPEGKL
partner: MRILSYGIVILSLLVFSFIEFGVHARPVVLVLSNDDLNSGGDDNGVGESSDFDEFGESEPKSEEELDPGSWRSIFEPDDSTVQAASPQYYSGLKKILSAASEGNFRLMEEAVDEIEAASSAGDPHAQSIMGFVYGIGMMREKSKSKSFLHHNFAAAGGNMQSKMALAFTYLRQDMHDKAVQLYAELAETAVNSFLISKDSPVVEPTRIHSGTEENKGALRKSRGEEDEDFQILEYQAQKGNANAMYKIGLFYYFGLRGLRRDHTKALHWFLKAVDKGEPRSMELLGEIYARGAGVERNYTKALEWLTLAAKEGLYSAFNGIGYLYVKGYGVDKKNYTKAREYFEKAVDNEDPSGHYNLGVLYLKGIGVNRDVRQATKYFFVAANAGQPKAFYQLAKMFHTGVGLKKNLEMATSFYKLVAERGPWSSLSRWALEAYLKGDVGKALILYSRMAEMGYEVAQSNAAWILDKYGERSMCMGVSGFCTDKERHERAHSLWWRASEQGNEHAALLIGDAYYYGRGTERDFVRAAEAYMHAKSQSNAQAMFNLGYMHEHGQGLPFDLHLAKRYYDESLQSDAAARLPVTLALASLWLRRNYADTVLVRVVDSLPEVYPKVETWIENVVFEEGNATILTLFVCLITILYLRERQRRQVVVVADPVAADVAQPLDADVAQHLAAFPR

Variants of B1 are the subject of the assay. As to conditions: with hrd3a_arath HRD3A.
With S662F, the “effect of a mutation on the interaction” value is “increasing interaction strength”.
Take C69Y: the “effect of a mutation on the interaction” value was “increasing interaction strength”.
